Measurements as given in the nanobody polyreactivity screen of Harvey et al. (2022).

experiment: yeast display, Sf9 membrane polyspecificity reagent, FACS + sequencing; frameworks hold sequencing errors
Method in brief: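 Nanobodies from a synthetic yeast display library (Saccharomyces cerevisiae BJ5465), induced 36–48 hours with galactose, were stained 1 hour at 4 °C with 10% biotinylated, detergent-solubilized Sf9 membrane reagent, enriched on streptavidin microbeads, then FACS-sorted. Anti-HA (expression) and streptavidin (reagent binding) fluorescence set low and high (top ~1%) gates. Polyreactivity labels come from the gate of origin. Genes were colony-PCR amplified, MiSeq 2 × 250 sequenced and filtered by CDR length.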

Row | Sequence | polyreactivity (PSR sort gate)
1 | QVQLVESGGGLVQAGGSLRLSCAASGRIYAYYPMGWYRQAPGKERELVAAISRGGGSTSYADSVKGRFTISRDNAKNTVYLQMNSLKPEDTAVYYCAADTRSYLVFTRYFRAYRRYDYWGQGTQVTVSS | low polyreactivity
2 | QVQLVESGGGLVQAGGSLRLSCAASGRIYGGNAKGWYRQAPGKEREFVAAITWRGGTTYYADSVKGRFTISRDNAKNTVYLQMNSLKPEDTAVYYCNALRYTRNTGYDYWGQGTQVTVSS | high polyreactivity
3 | QVQLVESGGGLVQAGGSLRLSCAASGRIYGYTMGWYRQAPGKERELVAAITRNGGSTYYADSVKGRFTISRDNSKNSVYLQMNSLKPEDTAVYYCAARNAFGTYYYWGQGTQVTVSS | high polyreactivity
4 | QVQLVESGGGLVQAGGSLRLSCAASGRIYKYYAMGWYRQAPGKETELVAAISISGTNTYYADSVKGRFTISRDNAKNTVYLQMNSLKPEDTAVFYCAARQYTRGYEREYWGQGTQVTVSS | high polyreactivity
5 | QVQLVESGGGLVQAGGSLRLSCAASGRIYVPNAMGWYRQAPGKERELVAAITSDGRTNDADSVKGRFTISRDNAKNTVYVQMNSLKPEDTAVYYSNAPVVTFGGYQDDVEYGYWGQGTQVTVSS | low polyreactivity
6 | QVQLVESGGGLVQAGGSLRLSCAASGRIYYAYTMGWYIQAPGKERELVAAISGSGSTYYADSVKGRFSISRDNAKNTVYLQMNSLKPEDTAVYYCAADVTGGRKYDYWGQGTQVTVSS | low polyreactivity
7 | QVQLVESGGGLVQAGGSLRLSCAASGRIYYRNAMGWYRQAPGKERELVAAISWRGGTTYYADSVKGRFTISRDNAKNSVYLQMNSLKPEYTAVYYCAADRRKAQAKPVHYSWGPQRYGYGYWGQGTQVTVSS | high polyreactivity
8 | QVQLVESGGGLVQAGGSLRLSCAASGRIYYSNDMRWYRQAPGKERELVAAISRRDGSTYYADSVKGRFTISRDNAKNTVYLQMNSLKPEDTAVYYCRYYSYRYGYWGQGTQVTVSS | high polyreactivity
9 | QVQLVESGGGLVQAGGSLRLSCAASGRKFNGYDMGWYRQAPGKERELVAPINNSGGTDNTYYADSVKGRFTISRDNAKNTVYLQMNSLKPEDTAVYYCNAGPVWDQWWLYYYWGQGTQVTVSS | high polyreactivity
10 | QVQLVESGGGLVQAGGSLRLSCAASGRLFIIYAMGWYRQAPGKERELVAAINRGATTNYADSVKGRFTISRDNAKYTVYLQMNSLKPEDTAVYYCAARGVAKLRRVGYWGQGTQVTVSS | high polyreactivity
11 | QVQLVESGGGLVQAGGSLRLSCAASGRLFTGNAMGWYRQAPGKERELVADINRTGGSPYYADSVKGRFTISRDNAKNTVYVQLNSLKPVDTAVYDCAAYVPWGWRYGYNYWGQGTQVTVSS | high polyreactivity
12 | QVQLVESGGGLVQAGGSLRLSCAASGRLFVYNAMGWYRQAPGKEREFVATITSSGGRTYYADSVKGRFTISRDNAKNTVYLQMNSLKPEDSAVYYCAARPQNNGRNPVYRYNYWGQGTQVTVSS | high polyreactivity
13 | QVQLVESGGGLVQAGGSLRLSCAASGRLFVYNAMGWYRQAPGKERELVASISWSGDSTYADSVKGRFTISRDNAKNTVYIQMNSLKPEDTAVYYCAAYSQADYQNMDYWGQGTQVTVSS | low polyreactivity
14 | QVQLVESGGGLVQAGGSLRLSCAASGRLFYQYAMGWSRQAPGKERELVAAISRSGGSTSYADSVKGRFTISRDNAKNTVYLQMNSLKPEDTAVYYCNARRWWDFQGYDYWGQGTQVTVSS | high polyreactivity
15 | QVQLVESGGGLVQAGGSLRLSCAASGRLMGWYRQAPGKERELVAAIRVSSGSTYYADSVKGRFTISRDNAKNTVYLQMNSLKPEDTAVYYCAKYVYLGYVRQVPYFRYDYWGQGTQVTVSS | high polyreactivity
16 | QVQLVESGGGLVQAGGSLRLSCAASGRLSVFYTMGWYRQAPGKERELVAVSRTSGGRTNYADSVKGRFTISRDNAKNTVYIEMNCLKPEDSGDYYGNAEFTYRWGYWQVYLLDYWGQGTQVTVSS | low polyreactivity
17 | QVQLVESGGGLVQAGGSLRLSCAASGRMFFRYAMGCYRQAPGKEREFVATITWSGGRTHYADSVKGRFTISRDNAKNTVYLQMNSLKPEDTAVYYCAASYHRYAFDYWGQGTQVTVSS | high polyreactivity
18 | QVQLVESGGGLVQAGGSLRLSCAASGRMFKYSDMGWYRQAPGKERALVAGISISGSTSYADSVKGRFTISRDNAKNTVYLQMNSLKPEDTAVYYCAADSRGGYPSLYEYDYWGQGTQETVSS | low polyreactivity
19 | QVQLVESGGGLVQAGGSLRLSCAASGRMFTYYAMGGYRQAPGKERELVAAINRGVVTTYYADSVKGRFTISRDHAKNTVDLQMNSLKPEDTAVYYCAADWFAANYYVNPVSALDYWGQGTQVTVSS | low polyreactivity
20 | QVQLVESGGGLVQAGGSLRLSCAASGRMGWYRQAPGKERELVAGITSSGRTYYADSVKGRFTISRDNAKNTVYLQMNSLKPEDTAVYYCATYGYWGQGTQVTVSS | high polyreactivity
21 | QVQLVESGGGLVQAGGSLRLSCAASGRNFALNAMGWYRQAPGKERELLATIRWRGGSTYYADSVKGRFTISRDNAKKTVYLQMNSLKPEDTAVYYCATGPRPYPYDYCGQGTQVTVSS | high polyreactivity
22 | QVQLVESGGGLVQAGGSLRLSCAASGRNFCNYAMGWYIQAPGKERELVAVIRFSDGSTYYADSVKGRFTISRDNAKNTVYLQMNSLKPEDTAVYYCAAKGPRRWGSGFDYWGQGTQVTVSS | low polyreactivity

Row | Sequence | polyreactivity (PSR sort gate)
23 | QVQLVESGGGLVQAGGSLRLSCAASGRNFDPYAMGWYRQAPGKERELVASISRGGSTYADSVKGRFTISRDNAKNTVYLQMNRLKPEVTAVYYCNTSLYTEGDAMDYWGQGTQVTVSS | low polyreactivity
24 | QVQLVESGGGLVQAGGSLRLSCAASGRNFGVYAMGWYRQAPGKERELVARIRGSGASTYYADSVKGRFTISRDNAKNTVYLQMNSLKPEDTAVYYCAAVTVAGYDYWGQGTQVTVSS | high polyreactivity
25 | QVQLVESGGGLVQAGGSLRLSCAASGRNFILNAMGWYRQAPGKERELVAAISWSGGSTYYADSVKGRFTISRDNAKNTVYLQMNSLKPEDTAVYYCAAETYAYLFHTYDYWGQGTQVTVSS | low polyreactivity
26 | QVQLVESGGGLVQAGGSLRLSCAASGRNFLIYAMGWYRQAPRKERELVADISTSGGTTYYADSVKGRFTISRDNAKNTVYLQMNSLKPADTAVYYCAAGSHYWKYYSWGQGTQVTVSS | high polyreactivity
27 | QVQLVESGGGLVQAGGSLRLSCAASGRNFLYNAMGWYRQAPGKERELVAVISKRGGRTYYADSVKGRFTISRDNAKNTVYLQMNSLKPEDTAVYYCAAAYVTPPGPLRYNEYYWGQGTQVTVSS | high polyreactivity
28 | QVQLVESGGGLVQAGGSLRLSCAASGRNFRWYAMGWYRQAPGKERELVAAITRGDITNYADSVKGRFTISRDNAKKTVYLQMNSLKPEDTAVYYCNAQWYDIYDYWGQGTQVTVSS | high polyreactivity
29 | QVQLVESGGGLVQAGGSLRLSCAASGRNFSSYAMGWYIQAPGKERELVAAITSGGRTKYADSVKGRFTISRDNAKNTVYLQMNSLKPEDTAVYYCAARNHWVRYLRYDYWGQGTQVTVSS | high polyreactivity
30 | QVQLVESGGGLVQAGGSLRLSCAASGRNFSYYAMGWYRQAPGKERELVAFISSGGNTYYADSVKGRFTISRDNAKNTVYLPMNSLKPEDTAVYYSGADPNAQGYPQVNYWGQGTQVTVSS | high polyreactivity
31 | QVQLVESGGGLVQAGGSLRLSCAASGRNFTSNAMGWYRQAPGKERELVAAITQSGGSTYYADSVKGRFTISRDNAKNTVYLQMNSLKPVDTAVYYCNAETTGRTEYNYWGQGTQVTVSS | low polyreactivity
32 | QVQLVESGGGLVQAGGSLRLSCAASGRNFYGYTMGWYRQAPGKERELVAAITSGGSTYYADSVKGRFTISRDNAKNTVYLQMNSLKPEDTAVYYCNAKYNGYYRRFSEYDYWGQGTQVTVSS | high polyreactivity
33 | QVQLVESGGGLVQAGGSLRLSCAASGRNFYHYAMGWYRQAPGKEREFVAAISVSGGRTYYADSVKGRFTISRDNAKNTVYLQMNSLKPEDTAVYYCAAEPEWPYGRFDYWGQGTQVTVSS | high polyreactivity
34 | QVQLVESGGGLVQAGGSLRLSCAASGRNFYYYAMGWYRQAPGKEREFVARNRSSGGSTYADSVKGRFTISRDNAKNTVYLQMNSLKPEDTAVYYCARDGYTAVEYDYWGQGTQVTVSS | low polyreactivity
35 | QVQLVESGGGLVQAGGSLRLSCAASGRNIYTNAMGWYRQAPGKERELVAAINRSGGITYYADSVKGRFTISRDNAKNTVDLQMNSLKPEDTAVYYCAKDYSWASYNHDYWGQGTQVTVSS | low polyreactivity
36 | QVQLVESGGGLVQAGGSLRLSCAASGRNLPSYAMGWYRQAPGKERELVAAISGSGGRTYYSDSVKGRFTISRDNAKNTVYLQMNSLKQEDTAVYYCAARQDDYGKINYYWGQGTQVTVSS | high polyreactivity
37 | QVQLVESGGGLVQAGGSLRLSCAASGRNSPSYAMGWYRQAPGKERELVAAISKRGGTTYYADSVKGRFTISRDNAKNTVYLQMNSLKPEDTAVYYCSARDYSHPTDDNYWGQRTQVTVSS | high polyreactivity
38 | QVQLVESGGGLVQAGGSLRLSCAASGRNYVYNAMGRYRQAPGKETELVAAITSSGGSTYYADSVKGRFTISRDNAKNSVDLQMNSLKPEDTAVYYCAADVQPDTRSTPEMDYWGQGTQVTVSS | low polyreactivity
39 | QVQLVESGGGLVQAGGSLRLSCAASGRPFISYAMGWYRQAPGKERELVAAISSSGGSTYYADSVKGRFTMSRDTAKNTVYLQMNSLKPEDTAVYYCNAAKVRRDPAWRLLDYWGQGTQVTVSS | low polyreactivity
40 | QVQLVESGGGLVQAGGSLRLSCAASGRPFKRYAMGWYRQAPGKEREVVAAITASGGNTYYADSVKGRFTISRDNAKNTVYLQMNSLKPEDTAVYYCARGSYSGGSKYNYWGQGTQVTVSS | high polyreactivity
41 | QVQLVESGGGLVQAGGSLRLSCAASGRPFPFNAMGWSRQAPGKDRELVAAISGRGGSTYYADSVKGRFTISRDNATNTGSLQRNSQKPEDTAVDYCAARLPWSYYRTQGYNSWGQGTQGTVSS | high polyreactivity
42 | QVQLVESGGGLVQAGGSLRLSCAASGRPFPGNAMGWYRPAPGKERELVAAISSSGGSTHYADSGKGRFTISRDTAKNTVYLQMNSLKPEDTAVYYCNARSIGYSYRYYDWGQGTQVTVSS | high polyreactivity
43 | QVQLVESGGGLVQAGGSLRLSCAASGRPFRGNAMGWYRQAPGKERQLVAAITGTGGSTYYADSVKGRFTISRDNAKNTVYLQMNSVKPEDTAVYYCAAVLRGHNGLNFEYWGQGTQVTVSS | high polyreactivity
